# Reference: ChEMBL document CHEMBL3352420, “Discovery of 2-pyridylureas as glucokinase activators” (J Med Chem, 2014)
# How the values were obtained:
# [1] = compound: CCc1ncccc1Oc1cc(Sc2ccccn2)cnc1NC(=O)NCc1ccc(O)cc1; assay: (§1) Activation of purified human glucokinase isoform 3 (13 to 466 aa) assessed as Vmax by spectrophotometry in presence of varying concentration of glucose relative to control
# [2] = compound: CCc1ncccc1Oc1cc(Sc2ccccn2)cnc1NC(=O)NC; assay: as §1
# [3] = compound: CNC(=O)Nc1ncc(SCCCOC)cc1Oc1cccnc1C; assay: as §1
# [4] = compound: CCc1ncccc1Oc1cc(Sc2ccccn2)cnc1NC=O; assay: as §1
# [5] = compound: CCc1ncccc1Oc1cc(Sc2ccccn2)cnc1NC(=O)NCc1cccc(O)c1; assay: as §1
# [6] = compound: CCc1ncccc1Oc1cc(Sc2ccccn2)cnc1NC(=O)NCc1ccncc1; assay: as §1
# [7] = compound: CNC(=O)Nc1ncc(SC2CCN(C(=O)OC(C)(C)C)CC2)cc1Oc1cccnc1C; assay: as §1
# [8] = compound: CCc1ncccc1Oc1cc(Sc2ccccn2)cnc1NC(=O)NCc1ccccc1O; assay: as §1
# [9] = compound: CNC(=O)Nc1ncc(Sc2ccccn2)cc1Oc1cccnc1C; assay: as §1
# [10] = compound: CCc1ncccc1Oc1cc(Sc2ccccn2)cnc1NC(=O)NCCO; assay: as §1
# [11] = compound: CCc1ncccc1Oc1cc(Sc2ccccn2)cnc1NC(=O)NC(C)C; assay: as §1
# [12] = compound: CCc1ncccc1Oc1cc(Sc2ccccn2)cnc1NC(=O)NCc1ccccn1; assay: as §1
# [13] = compound: CCc1ncccc1Oc1cc(Sc2ccccn2)cnc1NC(C)=O; assay: as §1
# [14] = compound: CNC(=O)Nc1ncc(Sc2ccccn2)cc1Oc1c(C)n[nH]c1C; assay: as §1
# [15] = compound: CCc1ncccc1Oc1cc(Sc2ccccn2)cnc1NC(N)=O; assay: as §1
# [16] = compound: CCNC(=O)Nc1ncc(Sc2ccccn2)cc1Oc1cccnc1CC; assay: as §1
# [17] = compound: CNC(=O)Nc1ncc(SCC2CCOCC2)cc1Oc1cccnc1C; assay: as §1
# [18] = compound: CNC(=O)Nc1ncc(SC2CCOCC2)cc1Oc1cccnc1C; assay: as §1
# [19] = compound: CNC(=O)Nc1ncc(SCCCO)cc1Oc1cccnc1C; assay: as §1
# [20] = compound: CCn1nccc1Oc1cc(Sc2ccccn2)cnc1NC(=O)NC; assay: as §1
# [21] = compound: CNC(=O)Nc1ncc(SC2CCN(S(C)(=O)=O)CC2)cc1Oc1cccnc1C; assay: as §1
# [22] = compound: CNC(=O)Nc1ncc(SCc2ccccc2)cc1Oc1cccnc1C; assay: as §1
# [23] = compound: CNC(=O)Nc1ncc(SCc2ccccn2)cc1Oc1cccnc1C; assay: as §1
# [24] = compound: CCOC(=O)Nc1ncc(Sc2ccccn2)cc1Oc1cccnc1CC; assay: as §1
# [25] = compound: CCc1ncccc1Oc1cc(Sc2ccccn2)cnc1NC(=O)NCc1cccnc1; assay: as §1
# [26] = compound: CNC(=O)Nc1ncc(SC2CCN(C(C)=O)CC2)cc1Oc1cccnc1C; assay: as §1
protein,measurement,setting,value
"Hexokinase-4 (Homo sapiens), P35557 (protein) MLDDRARMEAAKKEKVEQILAEFQLQEEDLKKVMRRMQKEMDRGLRLETHEEASVKMLPTYVRSTPEGSEVGDFLSLDLGGTNFRVMLVKVGEGEEGQWSVKTKHQMYSIPEDAMTGTAEMLFDYISECISDFLDKHQMKHKKLPLGFTFSFPVRHEDIDKGILLNWTKGFKASGAEGNNVVGLLRDAIKRRGDFEMDVVAMVNDTVATMISCYYEDHQCEVGMIVGTGCNACYMEEMQNVELVEGDEGRMCVNTEWGAFGDSGELDEFLLEYDRLVDESSANPGQQLYEKLIGGKYMGELVRLVLLRLVDENLLFHGEASEQLRTRGAFETRFVSQVESDTGDRKQIYNILSTLGLRPSTTDCDIVRRACESVSTRAAHMCSAGLAGVINRMRESRSEDVMRITVGVDGSVYKLHPSFKERFHASVRRLTPSCEITFIESEEGSGRGAALVSAVACKKACMLGQ",Vmax,[1],66%
same,Vmax,[2],77%
same,Vmax,[3],87%
same,Vmax,[4],104%
same,Vmax,[5],68%
same,Vmax,[6],73%
same,Vmax,[7],75%
same,Vmax,[8],84%
same,Vmax,[9],74%
same,Vmax,[10],66%
same,Vmax,[11],Not active
same,Vmax,[12],72%
same,Vmax,[13],Not active
same,Vmax,[14],53%
same,Vmax,[15],77%
same,Vmax,[16],64%
same,Vmax,[17],88%
same,Vmax,[18],73%
same,Vmax,[19],80%
same,Vmax,[20],90%
same,Vmax,[21],54%
same,Vmax,[22],76%
same,Vmax,[23],146%
same,Vmax,[24],Not active
same,Vmax,[25],75%
same,Vmax,[26],59%
